Consider two substances from publication PMC6513524, “Production and characterization of novel ssRNA bacteriophage virus-like particles from metagenomic sequencing data” (Journal of Nanobiotechnology, 2019).

In assay [1] the target is AVE018 coat protein (ssRNA phage AVE018 (metagenomic sequence)). In words: non-reducing SDS-PAGE; purified VLPs in 20 mM Tris-HCl pH 8.0, 50% glycerol mixed with Laemmli buffer with or without 5% 2-mercaptoethanol, 10 min at 95 °C, 15% gel; disulfide-linked CP oligomers.
In assay [2] the target is NFZC01007443 coat protein (ssRNA phage NFZC01007443 (metagenomic sequence)). Described as above.

The stoichiometry N is a count of units in the complex or per binding partner.

In turn, AVE018 coat protein (natural protein) showed a stoichiometry N in assay [1] of 2.
“NFZC01007443 coat protein (natural protein)”: the stoichiometry N in assay [2] is 5.
